# Experimental data: patent US20180346602A1
# Numbering of substitutions follows the chain as printed.
# B1: anti-variant (human) Fc-region antibody M1.3.17 (antibody, V domains shown)
# VH: EVKLLESGGGLVQPGGSLKLSCAASGIDFRRYWMNWVRQAPGKGLEWIGEIDPDSSTINYTPSLKDKFIISRDNAKNTMYLQMRKVRSEDTALYYCARPYDYGAWFAYWGQGTLVTVSA
# VL: QAVVTQESALTTSPGETVTLTCRSTTGAVTTSNYANWVQEKPDHLFTGLIGGTNKRAPGVPARFSGSLIGDKAALTITGAQTEDEAIYFCALWYSDHWVFGGGTKLTVL
# B2: anti-variant (human) Fc-region antibody M1.7.24 (antibody, V domains shown)
# VH: B1 VH with I27F, R30S, D52T, M79L, R84I, A97V, Y108S
# VL: B1 VL with T25S, D96N
# B3: anti-AAA variant Fc-region antibody M1.6.22 (antibody, V domains shown)
# VH: EVQLVESGGDLVKPGGSLKLSCAASGFTFSSYGMSWVRQTPDKRLEWVATISSGGSYIYYPDSVKGRFTISRDNAKNTLYLQMSSLKSEDTAMYYCARLGMITTGYAMDYWGQGTSVTVSS
# VL: DVLMTQTPLSLPVSLGDQASISCRSSQTIVHSTGHTYLEWFLQKPGQSPKLLIYKVSNRFSGVPDRFSGSGSGTDFTLKISRVEAEDLGVYYCFQGSHVPYTFGGGTKLEIK
# Biological target: anti-VEGF/ANG2 antibody (IgG1 subclass with mutations P329G/L234A/L235A) (human) [IgG part: P01857]
# Assay: sandwich ELISA assay C; capture on SA plate; tracer FcγRI-Dig; analyte 50 ng/mL
row,signal [OD405 nm],Binder
1,1.21 OD405 nm,B1
2,0.094 OD405 nm,B2
3,0.057 OD405 nm,B3

# Biological target: anti-P-Selectin antibody (IgG4 subclass with mutations S228P/L235E) (human) [IgG part: P01861]
# Assay: as above
row,signal [OD405 nm],Binder
1,1.15 OD405 nm,B1
2,0.066 OD405 nm,B2
3,0.054 OD405 nm,B3

# Biological target: anti-IGF-1R antibody (IgG1 subclass with mutations I253A/H310A/H435A) (human) [IgG part: P01857]
# Assay: as above
row,signal [OD405 nm],Binder
1,1.21 OD405 nm,B1
2,0.095 OD405 nm,B2
3,1.06 OD405 nm,B3

# Biological target: anti-VEGF/ANG2 antibody (IgG1 subclass with mutations P329G/L234A/L235A/I253A/H310A/H435A) (human) [IgG part: P01857]
# Assay: as above
row,signal [OD405 nm],Binder
1,1.17 OD405 nm,B1
2,0.084 OD405 nm,B2
3,0.077 OD405 nm,B3

# Biological target: anti-VEGF/ANG2 antibody (wild-type IgG1 subclass) [IgG part: P01857]
# Assay: sandwich ELISA assay A; capture M1.7.10-Bi; antibody 5 at 13 ng/mL
row,signal [OD405 nm],Binder
1,0.038 OD405 nm,B1
2,0.042 OD405 nm,B2
3,0.045 OD405 nm,B3

# Biological target: anti-IGF-1R antibody (IgG1 subclass with mutations I253A/H310A/H435A) [IgG part: P01857]
# Assay: sandwich ELISA assay A; capture M1.7.10-Bi; antibody 3 at 0 ng/mL (blank)
row,signal [OD405 nm],Binder
1,0.04 OD405 nm,B1
2,0.049 OD405 nm,B2
3,0.046 OD405 nm,B3

# Biological target: anti-VEGF/ANG2 antibody (IgG1 subclass with mutations P329G/L234A/L235A) [IgG part: P01857]
# Assay: sandwich ELISA assay A; capture M1.7.10-Bi; antibody 2 at 6 ng/mL
row,signal [OD405 nm],Binder
1,1.99 OD405 nm,B1
2,2.24 OD405 nm,B2
3,0.044 OD405 nm,B3

# Biological target: anti-VEGF/ANG2 antibody (IgG1 subclass with mutations P329G/L234A/L235A) (human) [IgG part: P01857]
# Assay: sandwich ELISA assay B; capture on SA plate; tracer M1.7.10-Dig; analyte 6 ng/mL
row,signal [OD405 nm],Binder
1,0.196 OD405 nm,B1
2,2.98 OD405 nm,B2
3,0.053 OD405 nm,B3

# Biological target: anti-VEGF/ANG2 antibody (IgG1 subclass with mutations P329G/L234A/L235A/I253A/H310A/H435A) (human) [IgG part: P01857]
# Assay: as above
row,signal [OD405 nm],Binder
1,0.035 OD405 nm,B1
2,0.053 OD405 nm,B2
3,0.039 OD405 nm,B3

# Biological target: anti-VEGF/ANG2 antibody (IgG1 subclass with mutations P329G/L234A/L235A) [IgG part: P01857]
# Assay: sandwich ELISA assay A; capture M1.7.10-Bi; antibody 2 at 13 ng/mL
row,signal [OD405 nm],Binder
1,2.7 OD405 nm,B1
2,2.52 OD405 nm,B2
3,0.051 OD405 nm,B3

# Biological target: anti-VEGF/ANG2 antibody (IgG1 subclass with mutations P329G/L234A/L235A/I253A/H310A/H435A) [IgG part: P01857]
# Assay: sandwich ELISA assay A; capture M1.7.10-Bi; antibody 1 at 13 ng/mL
row,signal [OD405 nm],Binder
1,0.04 OD405 nm,B1
2,0.047 OD405 nm,B2
3,0.061 OD405 nm,B3

# Biological target: anti-VEGF/ANG2 antibody (IgG1 subclass with mutations P329G/L234A/L235A/I253A/H310A/H435A) [IgG part: P01857]
# Assay: sandwich ELISA assay A; capture M1.7.10-Bi; antibody 1 at 100 ng/mL
row,signal [OD405 nm],Binder
1,0.043 OD405 nm,B1
2,0.053 OD405 nm,B2
3,0.059 OD405 nm,B3

# Biological target: anti-VEGF/ANG2 antibody (IgG1 subclass with mutations P329G/L234A/L235A) (human) [IgG part: P01857]
# Assay: sandwich ELISA assay C; capture on SA plate; tracer FcγRI-Dig; analyte 13 ng/mL
row,signal [OD405 nm],Binder
1,1.23 OD405 nm,B1
2,0.06 OD405 nm,B2
3,0.061 OD405 nm,B3

# Biological target: anti-P-Selectin antibody (IgG4 subclass with mutations S228P/L235E) (human) [IgG part: P01861]
# Assay: as above
row,signal [OD405 nm],Binder
1,1.16 OD405 nm,B1
2,0.066 OD405 nm,B2
3,0.052 OD405 nm,B3

# Biological target: anti-IGF-1R antibody (IgG1 subclass with mutations I253A/H310A/H435A) (human) [IgG part: P01857]
# Assay: as above
row,signal [OD405 nm],Binder
1,1.21 OD405 nm,B1
2,0.058 OD405 nm,B2
3,0.175 OD405 nm,B3

# Biological target: anti-VEGF/ANG2 antibody (IgG1 subclass with mutations P329G/L234A/L235A/I253A/H310A/H435A) (human) [IgG part: P01857]
# Assay: as above
row,signal [OD405 nm],Binder
1,1.14 OD405 nm,B1
2,0.085 OD405 nm,B2
3,0.064 OD405 nm,B3

# Biological target: anti-VEGF/ANG2 antibody (IgG1 subclass with mutations P329G/L234A/L235A/I253A/H310A/H435A) [IgG part: P01857]
# Assay: sandwich ELISA assay A; capture M1.7.10-Bi; antibody 1 at 6 ng/mL
row,signal [OD405 nm],Binder
1,0.042 OD405 nm,B1
2,0.045 OD405 nm,B2
3,0.057 OD405 nm,B3

# Biological target: anti-VEGF/ANG2 antibody (IgG1 subclass with mutations P329G/L234A/L235A) [IgG part: P01857]
# Assay: sandwich ELISA assay A; capture M1.7.10-Bi; antibody 2 at 50 ng/mL
row,signal [OD405 nm],Binder
1,2.96 OD405 nm,B1
2,2.6 OD405 nm,B2
3,0.065 OD405 nm,B3

# Biological target: anti-VEGF/ANG2 antibody (IgG1 subclass with mutations P329G/L234A/L235A) (human) [IgG part: P01857]
# Assay: sandwich ELISA assay B; capture on SA plate; tracer M1.7.10-Dig; analyte 2 ng/mL
row,signal [OD405 nm],Binder
1,0.125 OD405 nm,B1
2,1.73 OD405 nm,B2
3,0.041 OD405 nm,B3

# Biological target: anti-P-Selectin antibody (IgG4 subclass with mutations S228P/L235E) (human) [IgG part: P01861]
# Assay: as above
row,signal [OD405 nm],Binder
1,0.049 OD405 nm,B1
2,0.033 OD405 nm,B2
3,0.032 OD405 nm,B3

# Biological target: anti-IGF-1R antibody (IgG1 subclass with mutations I253A/H310A/H435A) (human) [IgG part: P01857]
# Assay: as above
row,signal [OD405 nm],Binder
1,0.047 OD405 nm,B1
2,0.047 OD405 nm,B2
3,1.48 OD405 nm,B3

# Biological target: anti-VEGF/ANG2 antibody (IgG1 subclass with mutations P329G/L234A/L235A/I253A/H310A/H435A) (human) [IgG part: P01857]
# Assay: as above
row,signal [OD405 nm],Binder
1,0.036 OD405 nm,B1
2,0.049 OD405 nm,B2
3,0.041 OD405 nm,B3

# Biological target: anti-VEGF/ANG2 antibody (IgG1 subclass with mutations P329G/L234A/L235A) [IgG part: P01857]
# Assay: sandwich ELISA assay A; capture M1.7.10-Bi; antibody 2 at 2 ng/mL
row,signal [OD405 nm],Binder
1,0.669 OD405 nm,B1
2,1.13 OD405 nm,B2
3,0.047 OD405 nm,B3

# Biological target: anti-IGF-1R antibody (IgG1 subclass with mutations I253A/H310A/H435A) [IgG part: P01857]
# Assay: sandwich ELISA assay A; capture M1.7.10-Bi; antibody 3 at 50 ng/mL
row,signal [OD405 nm],Binder
1,0.044 OD405 nm,B1
2,0.048 OD405 nm,B2
3,2.74 OD405 nm,B3
